Literature values in PMC8714859.
pKd: −log10 of the molar value.

Assays:
[1] = target: interleukin-34 (Homo sapiens) (UniProt Q6ZMJ4)
M-CSF (Homo sapiens) = M-CSF (Homo sapiens) (UniProt P09603)
Sequence of UniProt P09603 (P09603 33-190): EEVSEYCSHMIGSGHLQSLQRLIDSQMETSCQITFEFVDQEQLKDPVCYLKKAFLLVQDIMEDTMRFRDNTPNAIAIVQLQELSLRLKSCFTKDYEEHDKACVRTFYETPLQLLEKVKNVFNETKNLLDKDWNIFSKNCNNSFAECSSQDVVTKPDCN

Sequence of UniProt Q6ZMJ4 (Q6ZMJ4 21-242): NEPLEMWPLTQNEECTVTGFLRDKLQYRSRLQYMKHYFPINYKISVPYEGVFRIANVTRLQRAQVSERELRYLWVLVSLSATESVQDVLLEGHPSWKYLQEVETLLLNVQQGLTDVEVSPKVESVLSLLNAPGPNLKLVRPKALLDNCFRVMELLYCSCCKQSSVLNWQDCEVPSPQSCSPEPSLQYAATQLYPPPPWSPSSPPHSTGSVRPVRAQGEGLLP

M-CSF receptor (from UniProt P07333)
pKd [1]: 12.00 | pKd (M-CSF (Homo sapiens)): 10.47
